Measurements from paper PMC6283879, “Structural assembly of the megadalton-sized receptor for intestinal vitamin B12 uptake and kidney protein reabsorption” (Nature Communications, 2018).

Legend:
[1] = flow cytometry, cubilin surface expression, CHO K1; conditions: glycan lost; control: wild type AMN co-transfected with cubilin
[2] = molecular target: the molecule itself; experiment: crystal structure; AMN(20–357) and cubilin(26–135) co-expressed in E. coli and co-purified; crystals at 4 °C, sitting drop, 1.5 M magnesium sulphate, 0.1 M MES pH 5.5; 2.3 Å, SAD phasing

Protein | localisation_or_trafficking [1] | stoichiometry N [2]
amnionless (AMN): S37A (protein) parent chain: MGVLGRVLLWLQLCALTQAVSKLWVPNTDFDVAANWSQNRTPCAGGAVEFPADKMVSVLVQEGHAVSDMLLPLDGELVLASGAGFGVSDVGSHLDCGAGEPAVFRDSDRFSWHDPHLWRSGDEAPGLFFVDAERVPCRHDDVFFPPSASFRVGLGPGASPVRVRSISALGRTFTRDEDLAVFLASRAGRLRFHGPGALSVGPEDCADPSGCVCGNAEAQPWICAALLQPLGGRCPQAACHSALRPQGQCCDLCGAVVLLTHGPAFDLERYRARILDTFLGLPQYHGLQVAVSKVPRSSRLREADTEIQVVLVENGPETGGAGRLARALLADVAENGEALGVLEATMRESGAHVWGSSAAGLAGGVAAAVLLALLVLLVAPPLLRRAGRLRWRRHEAAAPAGAPLGFRNPVFDVTASEELPLPRRLSLVPKAAADSTSHSYFVNPLFAGAEAEA | no change | –
amnionless (AMN): S37A/T41I (protein) parent chain: MGVLGRVLLWLQLCALTQAVSKLWVPNTDFDVAANWSQNRTPCAGGAVEFPADKMVSVLVQEGHAVSDMLLPLDGELVLASGAGFGVSDVGSHLDCGAGEPAVFRDSDRFSWHDPHLWRSGDEAPGLFFVDAERVPCRHDDVFFPPSASFRVGLGPGASPVRVRSISALGRTFTRDEDLAVFLASRAGRLRFHGPGALSVGPEDCADPSGCVCGNAEAQPWICAALLQPLGGRCPQAACHSALRPQGQCCDLCGAVVLLTHGPAFDLERYRARILDTFLGLPQYHGLQVAVSKVPRSSRLREADTEIQVVLVENGPETGGAGRLARALLADVAENGEALGVLEATMRESGAHVWGSSAAGLAGGVAAAVLLALLVLLVAPPLLRRAGRLRWRRHEAAAPAGAPLGFRNPVFDVTASEELPLPRRLSLVPKAAADSTSHSYFVNPLFAGAEAEA | no change | –
N-terminal fragment of cubilin (residues 26–135) (domain or fragment, human, UniProt O60494 26-135, looked up, The methods name 'human' before AMN only ('human AMN ... and the N-terminal fragment of cubilin'); Cloned into the NdeI site of multiple cloning site 2 of pACYCDuet-1; also called trimeric cubilin; source: also in E. coli lysate / His-tag column eluate with the AMN T41I mutant) GELELQRQKRSINLQQPRMATERGNLVFLTGSAQNIEFRTGSLGKIKLNDEDLSECLHQIQKNKEDIIELKGSAIGLPQNISSQIYQLNSKLVDLERKFQGLQQTVDKKV | – | 3
